This note sets out measurements from patent US20070065875A1 (INNATE PHARMA S A, published 2007).

For assay [1], the target named is T1, NTB-A (NK-T-B-antigen) (human, UniProt Q96DU3 22-332).
T1 construct: Full-length surface glycoprotein; Native cells may also carry the allelic isoform with an extra Ala at position 266; also called KALI cDNA product; MA127-reactive molecule
T1 sequence: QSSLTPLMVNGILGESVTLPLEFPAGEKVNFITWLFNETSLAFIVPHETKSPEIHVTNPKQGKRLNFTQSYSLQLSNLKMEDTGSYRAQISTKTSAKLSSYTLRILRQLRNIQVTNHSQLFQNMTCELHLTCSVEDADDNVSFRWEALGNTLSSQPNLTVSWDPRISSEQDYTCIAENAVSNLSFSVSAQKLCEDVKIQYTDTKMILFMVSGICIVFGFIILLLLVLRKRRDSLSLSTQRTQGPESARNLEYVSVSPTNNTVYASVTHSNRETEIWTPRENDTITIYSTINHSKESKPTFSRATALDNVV
Kind of assay: NTB-A immunoprecipitates from 1% digitonin NK cell lysates probed by western blot. As for the experimental part:
(§1) NK cells (10⁸) were stimulated or not with 100 M sodium pervanadate (28). 1% NP-40 or 1% digitonin cell lysates were immunoprecipitated with Sepharose-PA (Amersham Pharmacia Biotech)-coupled mAbs. Samples were analyzed in discontinuous SDS-PAGE, transferred to Immobilon P (Millipore), and probed with: (a) anti-phosphotyrosine mAb (PY20-HRPO; Transduction Laboratories); (b) anti-SHP-2 or anti-SHP-1 mAbs (PTP1D and PTP1C, respectively; Transduction Laboratories) followed by rabbit anti-mouse-HRPO (Dako); (c) anti-SH2D1A rabbit anti-serum (produced by Eurogentec S.A; reference 28) followed by donkey anti-rabbit-HRPO (Amersham Pharmacia Biotech). The Renaissance Chemiluminescence Kit (NEN Life Science Products) was used for detection. Putative NTB-A association with known signal transducing molecules was analyzed by probing NTB-A immunoprecipitates, obtained from 1% digitonin cell lysates, with anti-FcRI (provided by E. Vivier, Marseille, France), anti-DAP12 (SI-28; reference 10), and anti-LAT (UBI; Upstate Biotechnology) antisera or with anti-CD3mAb (TIA/2; Immunotech).
On the technique in general: In western blotting, separated proteins are transferred to a membrane and probed.

Assay [2] deals with T1, NTB-A (NK-T-B-antigen). Kind of assay: NTB-A immunoprecipitates from 1% digitonin NK cell lysates probed with anti-LAT antiserum. Here is the method: as §1

B1: KARAP/DAP12 (other, human, UniProt O43914 22-113, looked up)
chain: LRPVQAQAQSDCSCSTVSPGVLAGIVMGDLVLTVLIALAVYFLGRLVPRGRGAAEAATRKQRITETESPYQELQGQRSDVYSDLNTQRPYYK
With B1, the binding result with NTB-A (NK-T-B-antigen) [1] is given as “no binding”.

B2: FcεRIγ (other, human, UniProt P30273 19-86, looked up)
chain: LGEPQLCYILDAILFLYGIVLTLLYCRLKIQVRKAAITSYEKSDGVYTGLSTRNQETYETLKHEKPPQ
Take B2: the binding result in the assay with NTB-A (NK-T-B-antigen) [1] was “no binding”.

B3: linker for activation of T cells (LAT) (other, human, UniProt O43561 1-262, looked up)
chain: MEEAILVPCVLGLLLLPILAMLMALCVHCHRLPGSYDSTSSDSLYPRGIQFKRPHTVAPWPPAYPPVTSYPPLSQPDLLPIPRSPQPLGGSHRTPSSRRDSDGANSVASYENEGASGIRGAQAGWGVWGPSWTRLTPVSLPPEPACEDADEDEDDYHNPGYLVVLPDSTPATSTAAPSAPALSTPGIRDSAFSMESIDDYVNVPESGESAEASLDGSREYVNVSQELHPGAAKTEPAALSSQEAEEVEEEGAPDYENLQELN
In the case of B3, the binding result in the assay with NTB-A (NK-T-B-antigen) [2] is recorded as “no binding”.
